± gives the standard deviation of the averaged measurements.
tested on: ATP; assay: switch fluorescence ratio, 500 uM ATP over buffer (Cy3 cluster intensity, sum of 5 cycles each) (fold (ratio)); higher = stronger signal-on switching upon ATP binding; sequences stand for … in TCGTCGGCAGCGTCAGATGTGTATAAGAGACAGTTTTTTTTTTTTTTTTTTTTTTTTT…TC; conditions: aptamer strand: ATP DNA aptamer (quencher-CACCTGGGGGAGTATTGCGGAGGAAGG + anchor), 100 nM annealed; ATP concentration: 500 uM
Method in brief: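 Per cluster, summed Cy3 intensity from the target cycles was divided by that from the buffer cycles to give the fluorescence ratio, then averaged per switch-domain sequence. Clusters outside 100-1000 RFU were excluded. The Cy3-labelled switching-strand clusters, on a modified Illumina MiSeq flow-cell, were annealed to 100 nM quencher-labelled ATP aptamer and imaged in selection buffer, then after 15 min with 500 uM ATP at 22 °C, for five cycles with NaOH stripping and re-annealing between them.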
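Further: ATP exposure 15 min at 22 °C before imaging.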

| Sequence | switch fluorescence ratio |
| --- | --- |
| AAGGGGAATG | 1.02 ± 0.056 |
| AAGGGGACAG | 0.995 ± 0.03 |
| AAGGGGAGAA | 0.9872 ± 0.008 |
| AAGGGGCGT | 0.9961 ± 0.0036 |
| AAGGGGGCAT | 0.979 ± 0.033 |
| AAGGGGGCCT | 1 ± 0.024 |
| AAGGGGGGA | 1.01 ± 0.072 |
| AAGGGGGTTA | 0.991 ± 0.025 |
| AAGGGGTTCG | 1.05 ± 0.023 |
| AAGGGGTTCT | 1.01 ± 0.016 |
| AAGGGTATAT | 0.9834 ± 0.0063 |
| AAGGGTATTG | 0.995 ± 0.024 |
| AAGGGTCAAA | 0.985 ± 0.048 |
| AAGGGTCAGC | 0.9917 ± 0.0081 |
| AAGGGTCTCG | 1.03 ± 0.095 |
| AAGGGTGGGA | 1.01 ± 0.039 |
| AAGGGTGGGG | 1 ± 0.058 |
| AAGGGTTAT | 0.995 ± 0.017 |
| AAGGGTTTAA | 0.98 ± 0.018 |
| AAGGTAGTGG | 0.962 ± 0.017 |
| AAGGTCAAGC | 1 ± 0.063 |
| AAGGTCCATG | 0.9631 ± 0.0013 |
| AAGGTCGGGA | 0.9966 ± 0.0087 |
| AAGGTCTTAG | 0.968 ± 0.039 |
| AAGGTGAAGA | 1.04 ± 0.029 |

| Sequence | switch fluorescence ratio |
| --- | --- |
| AAGGTGATAG | 1 ± 0.019 |
| AAGGTGCGGG | 0.999 ± 0.023 |
| AAGGTGCTGC | 1.035 ± 0.0022 |
| AAGGTGGGCC | 0.985 ± 0.019 |
| AAGGTGGGTT | 1.01 ± 0.059 |
| AAGGTTACCG | 1.04 ± 0.021 |
| AAGGTTAGAC | 1.03 ± 0.012 |
| AAGGTTATGC | 0.987 ± 0.039 |
| AAGGTTCTGA | 0.981 ± 0.016 |
| AAGGTTCTGG | 0.9883 ± 0.0083 |
| AAGGTTGTTT | 0.983 ± 0.03 |
| AAGTAAACAT | 1.06 ± 0.036 |
| AAGTAACTC | 1.03 ± 0.027 |
| AAGTAAGGGC | 1.02 ± 0.031 |
| AAGTACGTAG | 1.011 ± 0.0065 |
| AAGTACGTTC | 1.25 ± 0.035 |
| AAGTACTTTA | 1.14 ± 0.013 |
| AAGTACTTTT | 1.2 ± 0.055 |
| AAGTAGGCAC | 1.022 ± 0.0018 |
| AAGTAGTCCC | 1.3 ± 0.39 |
| AAGTATGGGT | 0.998 ± 0.028 |
| AAGTATGGTA | 0.965 ± 0.075 |
| AAGTCCAAGA | 1.01 ± 0.033 |
| AAGTCCCAGC | 0.995 ± 0.048 |
| AAGTCCCTTC | 1.01 ± 0.035 |

| Sequence | switch fluorescence ratio |
| --- | --- |
| AAGTCCGGGG | 0.9698 ± 0.0013 |
| AAGTCGAAGT | 0.98568 ± 0.00082 |
| AAGTCGACAC | 1.02 ± 0.032 |
| AAGTCGACGT | 1.03 ± 0.041 |
| AAGTCGATTG | 0.99 ± 0.017 |
| AAGTCGTCCG | 0.985 ± 0.044 |
| AAGTGAAACA | 1.03 ± 0.037 |
| AAGTGCATGC | 1.01 ± 0.11 |
| AAGTGCTTGA | 1 ± 0.069 |
| AAGTGGAGGC | 1.04 ± 0.0072 |
| AAGTGGAGTG | 0.999 ± 0.041 |
| AAGTGGCTGT | 0.941 ± 0.027 |
| AAGTGGGACC | 1.02 ± 0.025 |
| AAGTGGGCGC | 0.984 ± 0.016 |
| AAGTGGGGGT | 1 ± 0.039 |
| AAGTGGGGTC | 0.948 ± 0.037 |
| AAGTGGTGTC | 0.99 ± 0.13 |
| AAGTGGTGTT | 0.984 ± 0.028 |
| AAGTGTAAGG | 1.018 ± 0.0039 |
| AAGTGTCGGG | 0.994 ± 0.025 |
| AAGTTACCTG | 1.087 ± 0.0019 |
| AAGTTATGGC | 0.9598 ± 0.0046 |
| AAGTTCACGG | 1.06 ± 0.025 |
| AAGTTCATCT | 1 ± 0.07 |
| AAGTTCGCCA | 0.994 ± 0.01 |

| Sequence | switch fluorescence ratio |
| --- | --- |
| AAGTTCGTAA | 1.03 ± 0.0079 |
| AAGTTGACGG | 0.985 ± 0.011 |
| AAGTTGATTA | 1.006 ± 0.004 |
| AAGTTGATTG | 1.023 ± 0.0031 |
| AAGTTGCACC | 1 ± 0.067 |
| AAGTTGGTGG | 0.987 ± 0.033 |
| AAGTTGTTTC | 0.988 ± 0.013 |
| AAGTTTATTA | 0.964 ± 0.017 |
| AAGTTTCTG | 0.9892 ± 0.0025 |
| AAGTTTGCGT | 0.993 ± 0.022 |
| AAGTTTGTGT | 1.02 ± 0.0045 |
| AAGTTTTATC | 0.989 ± 0.021 |
| AAGTTTTCGC | 0.9789 ± 0.0067 |
| AAGTTTTTCG | 1.01 ± 0.014 |
| AATAAAATCG | 1.04 ± 0.01 |
| AATAAAGAAT | 0.973 ± 0.019 |
| AATAAATAGG | 0.9953 ± 0.0053 |
| AATAAATCTA | 1.039 ± 0.0016 |
| AATAACGATC | 1.037 ± 0.0063 |
| AATAACGGTG | 1.07 ± 0.019 |
| AATAAGAAGG | 0.999 ± 0.013 |
| AATAAGAGTT | 0.995 ± 0.05 |
| AATAAGATTG | 0.987 ± 0.022 |
| AATAAGCTCG | 0.9792 ± 0.0018 |
| AATAAGGGGC | 1.0051 ± 0.00093 |

| Sequence | switch fluorescence ratio |
| --- | --- |
| AATAATAGGT | 1.016 ± 0.007 |
| AATAATCAGG | 0.9926 ± 0.0086 |
| AATAATTGGG | 0.9967 ± 0.0012 |
| AATACCGTT | 0.968 ± 0.055 |
| AATACCTGAA | 1.17 ± 0.017 |
| AATACGATGC | 1.2 ± 0.091 |
| AATACGGCAC | 1.852 ± 0.006 |
| AATACGTATA | 1.1 ± 0.068 |
| AATACGTGGA | 1.029 ± 0.0036 |
| AATACTGGTT | 1.04 ± 0.021 |
| AATAGAAGGA | 0.9888 ± 0.0037 |
| AATAGAATTT | 0.997 ± 0.035 |
| AATAGCATGT | 0.981 ± 0.012 |
| AATAGCTAAA | 0.999 ± 0.03 |
| AATAGGAAGG | 1.01 ± 0.046 |
| AATAGGAATG | 0.996 ± 0.017 |
| AATAGGGCG | 1.038 ± 0.0084 |
| AATAGGGTTA | 1 ± 0.045 |
| AATAGGGTTC | 0.982 ± 0.025 |
| AATAGGTCAT | 1.02 ± 0.028 |
| AATAGGTGGG | 0.951 ± 0.016 |
| AATAGTACAA | 1.04 ± 0.0056 |
| AATAGTACTG | 1 ± 0.071 |
| AATAGTAGGG | 1.01 ± 0.017 |
| AATAGTCGGC | 1 ± 0.042 |

| Sequence | switch fluorescence ratio |
| --- | --- |
| AATAGTGGTT | 1.004 ± 0.0033 |
| AATAGTTCTG | 0.951 ± 0.043 |
| AATATAACCT | 1.94 ± 0.092 |
| AATATACTTT | 1.04 ± 0.051 |
| AATATAGGGT | 0.997 ± 0.028 |
| AATATATTGA | 0.996 ± 0.02 |
| AATATATTGG | 1.028 ± 0.0042 |
| AATATCATAC | 1.05 ± 0.021 |
| AATATCCGTA | 1.01 ± 0.033 |
| AATATGATTG | 1.02 ± 0.019 |
| AATATGGAGG | 0.985 ± 0.033 |
| AATATGGGGG | 1.01 ± 0.025 |
| AATATGGGTG | 1.08 ± 0.01 |
| AATATGTATC | 1.003 ± 0.0029 |
| AATATGTCTG | 0.937 ± 0.06 |
| AATATGTGGT | 0.972 ± 0.015 |
| AATATTGTT | 0.996 ± 0.01 |
| AATATTTAGG | 0.987 ± 0.035 |
| AATATTTCAT | 0.966 ± 0.025 |
| AATATTTCCA | 0.974 ± 0.023 |
| AATATTTCGG | 0.99 ± 0.0092 |
| AATATTTGG | 1.008 ± 0.0091 |
| AATATTTTTT | 1.01 ± 0.049 |
| AATCAAAAAG | 0.959 ± 0.018 |
| AATCAGACGG | 1.02 ± 0.021 |

| Sequence | switch fluorescence ratio |
| --- | --- |
| AATCAGGCCT | 1.05 ± 0.043 |
| AATCATAGTA | 1.011 ± 0.0089 |
| AATCATGTGC | 1 ± 0.04 |
| AATCCGAGGA | 1.05 ± 0.054 |
| AATCCTGTTT | 1.01 ± 0.067 |
| AATCCTTGAG | 1.02 ± 0.034 |
| AATCGAAAGA | 1.02 ± 0.039 |
| AATCGGAATT | 1.01 ± 0.03 |
| AATCGGATGG | 1.02 ± 0.037 |
| AATCGGCGCT | 1.01 ± 0.045 |
| AATCGGGTTT | 0.953 ± 0.02 |
| AATCGGTTAG | 1 ± 0.03 |
| AATCGGTTGT | 0.9815 ± 0.005 |
| AATCGTTAAG | 0.97 ± 0.015 |
| AATCGTTGAA | 1.01 ± 0.017 |
| AATCTAAGGT | 0.983 ± 0.064 |
| AATCTCATAG | 1.01 ± 0.012 |
| AATCTCCATT | 0.982 ± 0.025 |
| AATCTGCCCA | 1.04 ± 0.015 |
| AATCTGCCTG | 0.99 ± 0.011 |
| AATCTGGGAG | 0.996 ± 0.015 |
| AATCTGTTAT | 0.992 ± 0.033 |
| AATCTTGATT | 1.2 ± 0.24 |
| AATCTTGGGT | 0.972 ± 0.012 |
| AATGAAAGCC | 1.26 ± 0.39 |

| Sequence | switch fluorescence ratio |
| --- | --- |
| AATGAACTAG | 1.01 ± 0.053 |
| AATGAAGTCC | 1.054 ± 0.0038 |
| AATGAAGTCG | 0.997 ± 0.064 |
| AATGACGATG | 1.02 ± 0.029 |
| AATGAGGGGA | 1 ± 0.013 |
| AATGAGGTCG | 1.002 ± 0.0046 |
| AATGATATGA | 1.02 ± 0.05 |
| AATGATCCAG | 0.983 ± 0.032 |
| AATGATGTGG | 0.998 ± 0.021 |
| AATGATTGGG | 0.977 ± 0.02 |
| AATGATTGTT | 0.992 ± 0.03 |
| AATGCGAGAA | 0.973 ± 0.024 |
| AATGCTGGGG | 1.05 ± 0.081 |
| AATGGAACGG | 1.02 ± 0.032 |
| AATGGAGGAG | 1.01 ± 0.023 |
| AATGGATAAC | 0.9862 ± 0.0045 |
| AATGGATTTG | 0.995 ± 0.013 |
| AATGGATTTT | 0.982 ± 0.013 |
| AATGGCCGGC | 0.987 ± 0.014 |
| AATGGCGGTA | 0.9928 ± 0.0082 |
| AATGGCGTTG | 1 ± 0.057 |
| AATGGCTTTG | 1.029 ± 0.0062 |
| AATGGGAAGT | 0.991 ± 0.019 |
| AATGGGATAG | 1.02 ± 0.021 |
| AATGGGATTC | 0.9881 ± 0.009 |

— the supplement of paper PMC10126150
